This is an account of results in article PMC6625852.

In test [1] the target is human factor VII N360Q mutant, C-terminal V5 tag (human). Description: co-IP.
Test [2] addresses human factor VII wild-type, C-terminal V5 tag (human). The test is described as follows: co-IP.

Regarding “binding immunoglobulin protein (BiP) (from UniProt P11021 19-654) (natural protein)”, the level co-precipitated, percent of that with WT FVII in test [1] was 230%.

B1: calnexin (natural protein)
chain: HDGHDDDVIDIEDDLDDVIEEVEDSKPDTTAPPSSPKVTYKAPVPTGEVYFADSFDRGTLSGWILSKAKKDDTDDEIAKYDGKWEVEEMKESKLPGDKGLVLMSRAKHHAISAKLNKPFLFDTKPLIVQYEVNFQNGIECGGAYVKLLSKTPELNLDQFHDKTPYTIMFGPDKCGEDYKLHFIFRHKNPKTGIYEEKHAKRPDADLKTYFTDKKTHLYTLILNPDNSFEILVDQSVVNSGNLLNDMTPPVNPSREIEDPEDRKPEDWDERPKIPDPEAVKPDDWDEDAPAKIPDEEATKPEGWLDDEPEYVPDPDAEKPEDWDEDMDGEWEAPQIANPRCESAPGCGVWQRPVIDNPNYKGKWKPPMIDNPSYQGIWKPRKIPNPDFFEDLEPFRMTPFSAIGLELWSMTSDIFFDNFIICADRRIVDDWANDGWGLKKAADGAAEPGVVGQMIEAAEERPWLWVVYILTVALPVFLVILFCCSGKKQTSGMEYKKTDAPQPDVKEEEEEKEEEKDKGDEEEEGEEKLEEKQKSDAEEDGGTVSQEEEDRKPKAEEDEILNRSPRNRKPRRE
Regarding B1, the level co-precipitated, percent of that with WT FVII in test [1] is 124%. Also, in test [2], the level co-precipitated in DNJ-treated cells, percent of WT in untreated cells amounted to 129%.
